How the values were obtained:
human TGFβ2 [1] = target: T1, human TGFβ2 (human, UniProt P61812 303-414); experiment: Biacore off-rate vs wt GC1008
T1 construct: also called TGFβ2 homodimer
T1 sequence: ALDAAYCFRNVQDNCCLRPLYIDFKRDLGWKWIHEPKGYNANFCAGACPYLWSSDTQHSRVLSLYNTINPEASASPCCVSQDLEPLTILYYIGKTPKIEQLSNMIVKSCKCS
Text: (§1) Plasmids encoding either the GC1008 heavy chain or light chain were used as a template in PCR-based mutagenesis reactions. Mutations to the encoding DNA were made to create 155 single amino acid substitutions of the encoded heavy chain amino acid sequence and one single amino acid substitution of the encoded light chain amino acid sequence. A QuikChange® Lightning Site-Directed Mutagenesis kit (Agilent Technologies, Santa Clara Calif.) was used according to the manufacturer's instructions to create DNA mutations using a set of forward and reverse primers, either designed for a specific amino acid or for all 20 amino acids with a degenerate codon (NNK). After sequencing confirmation, identified mutant DNA was paired with a wild-type light or heavy chain DNA for transfection into an Expi293F™ host cell suspension (Life Techonologies Corp., Grand Island, N.Y.). At 4 days post-transfection, conditioned media (1 mL) was harvested and purified using a 1 mL Protein A PhyTip® column (PhyNexus, Inc., San Jose, Calif.) and a PureSpeed™ 12-channel pipette (Rainin Instrument LLC, Oakland, Calif.). Purified variant antibody samples were analyzed in duplicate on a Biacore® 3000 (GE Healthcare) at 50 nM concentrations, using the 100 RU level TGFβ1, 2, and 3 immobilized surfaces. The off-rate (kd) of the variants was divided by the kd of the wild-type control to obtain the fold change in the kd. […] A heat map was generated to visualize the results. Variants that completely lost affinity for TGFβ were shown in red without numbers.

human TGFβ3 [2] = target: T2, human TGFβ3 (human, UniProt P10600 301-412); experiment: Biacore off-rate vs wt GC1008
T2 sequence: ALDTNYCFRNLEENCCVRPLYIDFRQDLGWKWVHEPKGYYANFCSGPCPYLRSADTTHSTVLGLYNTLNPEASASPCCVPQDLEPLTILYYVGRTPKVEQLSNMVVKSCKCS
Text: as §1

human TGFβ1 [3] = target: T3, human TGFβ1 (human, UniProt P01137 279-390); experiment: Biacore off-rate vs wt GC1008
T3 construct: also called TGFβ1 homodimer
Text: as §1

human TGFβ2 [4] = target: T1, human TGFβ2; experiment: Biacore, 3.33-90 nM, 1:1 global fit, vs wt GC1008
Procedure: (§2) In FIG. 6C, seventeen mutants were selected and scaled up to produce sufficient amount of purified protein for KD (equilibrium constant=kd/ka) analysis by Biacore. Multiple concentrations (90, 30, 10 and 3.33 nM) were used in duplicate on the 150 RU level TGFβ1, 2, and 3 immobilized surfaces. KD was calculated using global curve fitting analysis for a 1-to-1 Langmuir binding model. The experimental data from all four concentrations were used for calculation except for I54N and I54R mutants, where only the top 2 concentrations were used. The fold changes in KD were compared to the fold changes in kd (off rate) presented in FIG. 6B, and a heat map was generated for visualization. Similar fold changes were observed from the two data sets, confirming the validity of using kd as a parameter for screening of 155 single mutants as shown in FIG. 6B.

human TGFβ3 [5] = target: T2, human TGFβ3; experiment: Biacore, 3.33-90 nM, 1:1 global fit, vs wt GC1008
Procedure: as §2

human TGFβ1 [6] = target: T3, human TGFβ1; experiment: Biacore, 3.33-90 nM, 1:1 global fit, vs wt GC1008
Procedure: as §2

human TGFβ2 [7] = target: T1, human TGFβ2; experiment: Biacore off-rate vs wt GC1008, 50 nM
Summary of the method: (§3)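 Surface plasmon resonance on a Biacore 3000 measured how fast purified antibody variants dissociated from TGFβ isoforms immobilized at about 100 RU. Variants carried single heavy- or light-chain substitutions and were produced by transient Expi293F transfection with Protein A cleanup. Samples at 50 nM were tested in duplicate, and each variant kd was divided by the wild-type control kd to give fold change.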

human TGFβ3 [8] = target: T2, human TGFβ3; experiment: Biacore off-rate vs wt GC1008, 50 nM
Summary of the method: as §3

human TGFβ1 [9] = target: T3, human TGFβ1; experiment: Biacore off-rate vs wt GC1008, 50 nM
Summary of the method: as §3

T3 sequence (P01137 279-390 limits assumed): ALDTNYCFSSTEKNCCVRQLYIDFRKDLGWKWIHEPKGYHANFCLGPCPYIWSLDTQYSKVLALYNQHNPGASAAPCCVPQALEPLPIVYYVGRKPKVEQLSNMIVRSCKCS

B1: I54W (antibody, V domains shown)
VH: QVQLVQSGAEVKKPGSSVKVSCKASGYTFSSNVISWVRQAPGQGLEWMGGVIPWVDIANYAQRFKGRVTITADESTSTTYMELSSLRSEDTAVYYCASTLGLVLDAMDYWGQGTLVTVSS
VL: ETVLTQSPGTLSLSPGERATLSCRASQSLGSSYLAWYQQKPGQAPRLLIYGASSRAPGIPDRFSGSGSGTDFTLTISRLEPEDFAVYYCQQYADSPITFGQGTRLEIK
notes: GC1008 IgG4 variant
kd mutant/kd wt (human TGFβ2 [1]): 1.2
kd mutant/kd wt (human TGFβ3 [2]): 1.7
kd mutant/kd wt (human TGFβ1 [3]): 2
KD mutant/KD wt (human TGFβ2 [4]): 1.4
KD mutant/KD wt (human TGFβ3 [5]): 3.1
KD mutant/KD wt (human TGFβ1 [6]): 1.7
kd var/kd wt (human TGFβ2 [7]): 1.2
kd var/kd wt (human TGFβ3 [8]): 1.7
kd var/kd wt (human TGFβ1 [9]): 2

B2: N32E (antibody, V domains shown)
VH: QVQLVQSGAEVKKPGSSVKVSCKASGYTFSSEVISWVRQAPGQGLEWMGGVIPIVDIANYAQRFKGRVTITADESTSTTYMELSSLRSEDTAVYYCASTLGLVLDAMDYWGQGTLVTVSS
VL: ETVLTQSPGTLSLSPGERATLSCRASQSLGSSYLAWYQQKPGQAPRLLIYGASSRAPGIPDRFSGSGSGTDFTLTISRLEPEDFAVYYCQQYADSPITFGQGTRLEIK
notes: GC1008 IgG4 variant
kd mutant/kd wt (human TGFβ2 [1]): 0.8
kd mutant/kd wt (human TGFβ3 [2]): 0.7
kd mutant/kd wt (human TGFβ1 [3]): 0.6
KD mutant/KD wt (human TGFβ2 [4]): 0.8
KD mutant/KD wt (human TGFβ3 [5]): 1
KD mutant/KD wt (human TGFβ1 [6]): 1
kd var/kd wt (human TGFβ2 [7]): 0.8
kd var/kd wt (human TGFβ3 [8]): 0.7
kd var/kd wt (human TGFβ1 [9]): 0.6

B3: S30W (antibody, V domains shown)
VH: QVQLVQSGAEVKKPGSSVKVSCKASGYTFWSNVISWVRQAPGQGLEWMGGVIPIVDIANYAQRFKGRVTITADESTSTTYMELSSLRSEDTAVYYCASTLGLVLDAMDYWGQGTLVTVSS
VL: ETVLTQSPGTLSLSPGERATLSCRASQSLGSSYLAWYQQKPGQAPRLLIYGASSRAPGIPDRFSGSGSGTDFTLTISRLEPEDFAVYYCQQYADSPITFGQGTRLEIK
notes: GC1008 IgG4 variant
kd mutant/kd wt (human TGFβ2 [1]): 0.4
kd mutant/kd wt (human TGFβ3 [2]): 0.3
kd mutant/kd wt (human TGFβ1 [3]): 0.7
KD mutant/KD wt (human TGFβ2 [4]): 0.4
KD mutant/KD wt (human TGFβ3 [5]): 0.3
KD mutant/KD wt (human TGFβ1 [6]): 0.7
kd var/kd wt (human TGFβ2 [7]): 0.4
kd var/kd wt (human TGFβ3 [8]): 0.3
kd var/kd wt (human TGFβ1 [9]): 0.7

B4: N32K (antibody, V domains shown)
VH: QVQLVQSGAEVKKPGSSVKVSCKASGYTFSSKVISWVRQAPGQGLEWMGGVIPIVDIANYAQRFKGRVTITADESTSTTYMELSSLRSEDTAVYYCASTLGLVLDAMDYWGQGTLVTVSS
VL: ETVLTQSPGTLSLSPGERATLSCRASQSLGSSYLAWYQQKPGQAPRLLIYGASSRAPGIPDRFSGSGSGTDFTLTISRLEPEDFAVYYCQQYADSPITFGQGTRLEIK
notes: GC1008 IgG4 variant
kd mutant/kd wt (human TGFβ2 [1]): 1.4
kd mutant/kd wt (human TGFβ3 [2]): 1.8
kd mutant/kd wt (human TGFβ1 [3]): 2.7
KD mutant/KD wt (human TGFβ2 [4]): 2.6
KD mutant/KD wt (human TGFβ3 [5]): 3.7
KD mutant/KD wt (human TGFβ1 [6]): 4
kd var/kd wt (human TGFβ2 [7]): 1.4
kd var/kd wt (human TGFβ3 [8]): 1.8
kd var/kd wt (human TGFβ1 [9]): 2.7

B5: S30E (antibody, V domains shown)
VH: QVQLVQSGAEVKKPGSSVKVSCKASGYTFESNVISWVRQAPGQGLEWMGGVIPIVDIANYAQRFKGRVTITADESTSTTYMELSSLRSEDTAVYYCASTLGLVLDAMDYWGQGTLVTVSS
VL: ETVLTQSPGTLSLSPGERATLSCRASQSLGSSYLAWYQQKPGQAPRLLIYGASSRAPGIPDRFSGSGSGTDFTLTISRLEPEDFAVYYCQQYADSPITFGQGTRLEIK
notes: GC1008 IgG4 variant
kd mutant/kd wt (human TGFβ2 [1]): 1.4
kd mutant/kd wt (human TGFβ3 [2]): 1.1
kd mutant/kd wt (human TGFβ1 [3]): 1.2
KD mutant/KD wt (human TGFβ2 [4]): 1.6
KD mutant/KD wt (human TGFβ3 [5]): 0.8
KD mutant/KD wt (human TGFβ1 [6]): 1.5
kd var/kd wt (human TGFβ2 [7]): 1.4
kd var/kd wt (human TGFβ3 [8]): 1.1
kd var/kd wt (human TGFβ1 [9]): 1.2
